Among the data in paper PMC4452343, “Monitoring β-arrestin recruitment via β-lactamase enzyme fragment complementation: purification of peptide E as a low-affinity ligand for mammalian bombesin receptors” (PLoS ONE, 2015) are EC50 of NFAT-luciferase reporter activation in CHO cells expressing hGRPR values, retold here.

The assay concerns the target gastrin-releasing peptide receptor (human) (UniProt P30550).

Chain of gastrin-releasing peptide receptor (human) (P30550 whole entry): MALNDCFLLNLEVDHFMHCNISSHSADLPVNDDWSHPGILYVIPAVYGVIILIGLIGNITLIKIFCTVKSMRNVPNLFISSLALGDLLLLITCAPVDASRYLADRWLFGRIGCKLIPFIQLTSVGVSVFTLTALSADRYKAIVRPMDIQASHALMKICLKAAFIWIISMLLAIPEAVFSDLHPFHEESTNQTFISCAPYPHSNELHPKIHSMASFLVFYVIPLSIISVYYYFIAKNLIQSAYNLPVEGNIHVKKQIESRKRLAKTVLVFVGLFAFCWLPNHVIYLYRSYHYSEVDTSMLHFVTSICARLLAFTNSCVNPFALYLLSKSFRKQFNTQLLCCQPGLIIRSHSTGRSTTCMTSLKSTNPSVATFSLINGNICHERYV

B1: gastrin-releasing peptide (peptide)
chain: VPLPAGGGTVLTKMYPRGNHWAVGHLM
For B1, the EC50 of NFAT-luciferase reporter activation in CHO cells expressing hGRPR came out at 0.12 nM.
